The source of these data is patent publication US5998188.

A value given as a limit tells only on which side of the number the result lay.

In this test the target is MAP kinase (ERKs) of PC12 cells.

“MKP-2 (rat mitogen-activated protein kinase phosphatase-2), full length, expressed from CMV-MKP-2 in PC12 cells”: the Gal4-Elk-1 dependent luciferase activity induced by Raf BxB in PC12 cells (% of maximal levels) worked out at 90.

B1: MKP-1, full length, expressed from CMV-MKP-1 in PC12 cells (enzyme)
chain: MVMEVGILDAGGLRALLREGAAQCLLLDCRSFFAFNAGHIAGSVNVRFSTIVRRRAKGAMGLEHIVPNAELRGRLLAGAYHAVVLLDERSASLDGAKRDGTLALAAGALCREARSTQVFFLQGGYEAFSASCPELCSKQSTPTGLSLPLSTSVPDSAESGCSSCSTPLYDQGGPVEILSFLYLGSAYHASRKDMLDALGITALINVSANCPNHFEGHYQYKSIPVEDNHKADISSWFNEAIDFIDSIKDAGGRVFVHCQAGISRSATICLAYLMRTNRVKLDEAFEFVKQRRSIISPNFSFMGQLLQFESQVLAPHCSAEAGSPAMAVLDRGTSTTTVFNFPVSIPVHPTNSALNYLKSPITTSPSC
The molecule B1 came in with a Gal4-Elk-1 dependent luciferase activity induced by Raf BxB in PC12 cells (% of maximally stimulated levels) of over 60.
